B1: GpH7-B3 variant T335_05P/GpL16-k0 (antibody, human IgG1, kappa)
heavy: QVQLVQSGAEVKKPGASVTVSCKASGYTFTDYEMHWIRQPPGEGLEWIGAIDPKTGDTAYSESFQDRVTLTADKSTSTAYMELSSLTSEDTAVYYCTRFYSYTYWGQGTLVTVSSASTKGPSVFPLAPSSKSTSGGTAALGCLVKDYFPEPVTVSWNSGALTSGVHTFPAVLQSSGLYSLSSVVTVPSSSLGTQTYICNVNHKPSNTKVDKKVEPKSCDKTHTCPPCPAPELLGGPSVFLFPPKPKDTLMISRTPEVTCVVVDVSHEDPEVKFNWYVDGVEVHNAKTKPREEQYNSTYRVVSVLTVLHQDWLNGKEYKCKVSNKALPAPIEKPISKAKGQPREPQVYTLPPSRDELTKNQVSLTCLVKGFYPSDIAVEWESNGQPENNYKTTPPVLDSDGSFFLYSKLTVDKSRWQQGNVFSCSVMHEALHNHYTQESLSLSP
light: DIVMTQSPLSLPVTPGEPASISCQASESLVHSNRNTYLHWYLQKPGQSPQLLIYKVSNRFSGVPDRFSGSGSGTDFTLKISRVEAEDVGVYYCSQNTHVPPTFGQGTKVEIERTVAAPSVFIFPPSDEQLKSGTASVVCLLNNFYPREAKVQWKVDNALQSGNSQESVTEQDSKDSTYSLSSTLTLSKADYEKHKVYACEVTHQGLSSPVTKSFNRGEC
notes: homodimerized IgG1, mutation in both H chains; also called Ho Ab
B2: GpH7-B3 variant T335_06M/GpL16-k0 (antibody, human IgG1, kappa)
heavy: not shown
light: B1 light
notes: as for B1
B3: GpH7-B3 variant T335_07I/GpL16-k0 (antibody, human IgG1, kappa)
heavy: not shown
light: B1 light
notes: as for B1
B4: GpH7-B3 variant T335_08L/GpL16-k0 (antibody, human IgG1, kappa)
heavy: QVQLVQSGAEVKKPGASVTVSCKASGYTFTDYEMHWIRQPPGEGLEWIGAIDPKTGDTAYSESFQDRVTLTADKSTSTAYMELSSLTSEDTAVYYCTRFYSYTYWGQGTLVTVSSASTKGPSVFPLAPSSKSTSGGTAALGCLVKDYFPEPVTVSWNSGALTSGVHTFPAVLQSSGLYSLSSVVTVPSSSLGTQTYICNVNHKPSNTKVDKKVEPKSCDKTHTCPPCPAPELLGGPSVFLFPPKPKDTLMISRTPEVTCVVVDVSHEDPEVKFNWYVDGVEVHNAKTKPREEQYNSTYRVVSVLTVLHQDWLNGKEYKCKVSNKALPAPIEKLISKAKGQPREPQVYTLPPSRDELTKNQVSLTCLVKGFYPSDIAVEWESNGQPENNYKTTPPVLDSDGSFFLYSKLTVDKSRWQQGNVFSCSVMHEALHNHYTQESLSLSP
light: B1 light
notes: as for B1
B5: GpH7-B3 variant T335_09D/GpL16-k0 (antibody, human IgG1, kappa)
heavy: not shown
light: B1 light
notes: as for B1
B6: GpH7-B3 variant T335_10E/GpL16-k0 (antibody, human IgG1, kappa)
heavy: not shown
light: B1 light
notes: as for B1
B7: GpH7-B3 variant T335_11K/GpL16-k0 (antibody, human IgG1, kappa)
heavy: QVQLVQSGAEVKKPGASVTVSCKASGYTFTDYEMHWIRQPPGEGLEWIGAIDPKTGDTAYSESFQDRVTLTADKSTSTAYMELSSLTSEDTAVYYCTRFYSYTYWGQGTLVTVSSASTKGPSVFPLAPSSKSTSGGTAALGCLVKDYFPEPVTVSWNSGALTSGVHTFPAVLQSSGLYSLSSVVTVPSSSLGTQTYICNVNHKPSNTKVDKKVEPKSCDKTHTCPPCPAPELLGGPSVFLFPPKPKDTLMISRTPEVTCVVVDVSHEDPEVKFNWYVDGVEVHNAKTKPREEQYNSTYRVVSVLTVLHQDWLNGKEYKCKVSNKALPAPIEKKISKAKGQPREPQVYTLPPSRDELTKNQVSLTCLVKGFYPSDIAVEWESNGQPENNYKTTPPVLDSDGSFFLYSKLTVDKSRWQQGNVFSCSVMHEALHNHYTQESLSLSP
light: B1 light
notes: as for B1
B8: GpH7-B3 variant T335_12R/GpL16-k0 (antibody, human IgG1, kappa)
heavy: not shown
light: B1 light
notes: as for B1
B9: GpH7-B3 variant T335_15Y/GpL16-k0 (antibody, human IgG1, kappa)
heavy: not shown
light: B1 light
notes: as for B1
B10: GpH7-B3 variant T335_16H/GpL16-k0 (antibody, human IgG1, kappa)
heavy: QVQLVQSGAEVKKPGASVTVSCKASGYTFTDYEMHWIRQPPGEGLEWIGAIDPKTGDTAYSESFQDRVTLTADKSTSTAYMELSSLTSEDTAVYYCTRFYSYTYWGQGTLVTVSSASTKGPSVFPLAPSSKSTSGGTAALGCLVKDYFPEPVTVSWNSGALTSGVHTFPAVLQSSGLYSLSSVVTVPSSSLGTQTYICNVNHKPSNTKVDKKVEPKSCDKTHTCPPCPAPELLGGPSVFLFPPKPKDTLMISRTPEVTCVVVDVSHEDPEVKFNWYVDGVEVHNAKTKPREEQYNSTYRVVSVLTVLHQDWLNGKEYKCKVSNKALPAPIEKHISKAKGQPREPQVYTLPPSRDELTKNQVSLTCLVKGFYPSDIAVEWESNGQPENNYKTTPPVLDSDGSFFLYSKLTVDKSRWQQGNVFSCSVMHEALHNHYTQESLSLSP
light: B1 light
notes: as for B1
B11: GpH7-B3 variant T335_18N/GpL16-k0 (antibody, human IgG1, kappa)
heavy: not shown
light: B1 light
notes: as for B1
B12: GpH7-B3 variant T335_19Q/GpL16-k0 (antibody, human IgG1, kappa)
heavy: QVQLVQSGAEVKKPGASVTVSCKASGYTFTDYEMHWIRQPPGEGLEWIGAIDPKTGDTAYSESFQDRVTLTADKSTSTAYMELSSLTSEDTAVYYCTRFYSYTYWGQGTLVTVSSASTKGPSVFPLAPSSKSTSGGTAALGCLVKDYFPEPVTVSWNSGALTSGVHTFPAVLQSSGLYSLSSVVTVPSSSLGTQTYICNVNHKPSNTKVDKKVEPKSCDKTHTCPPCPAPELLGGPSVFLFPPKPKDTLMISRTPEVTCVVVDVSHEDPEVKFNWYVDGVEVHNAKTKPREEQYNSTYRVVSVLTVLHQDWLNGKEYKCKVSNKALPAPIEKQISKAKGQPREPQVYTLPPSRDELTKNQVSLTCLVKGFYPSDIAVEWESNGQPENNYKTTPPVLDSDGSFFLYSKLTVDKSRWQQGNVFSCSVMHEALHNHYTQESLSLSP
light: B1 light
notes: as for B1
B13: GpH7-B3 variant T335_20W/GpL16-k0 (antibody, human IgG1, kappa)
heavy: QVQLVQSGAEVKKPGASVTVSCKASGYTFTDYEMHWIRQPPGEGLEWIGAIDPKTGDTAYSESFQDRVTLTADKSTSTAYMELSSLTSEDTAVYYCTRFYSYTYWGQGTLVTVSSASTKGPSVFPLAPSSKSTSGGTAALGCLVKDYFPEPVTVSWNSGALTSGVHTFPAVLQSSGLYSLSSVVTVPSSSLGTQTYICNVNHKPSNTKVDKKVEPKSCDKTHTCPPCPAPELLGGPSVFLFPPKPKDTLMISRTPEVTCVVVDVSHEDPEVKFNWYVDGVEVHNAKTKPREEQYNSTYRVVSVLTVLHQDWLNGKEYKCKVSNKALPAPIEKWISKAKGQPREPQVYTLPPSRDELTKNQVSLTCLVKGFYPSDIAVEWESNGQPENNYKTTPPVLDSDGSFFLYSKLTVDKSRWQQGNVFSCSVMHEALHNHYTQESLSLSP
light: B1 light
notes: as for B1
B14: GpH7-B3 variant Y296_06M/GpL16-k0 (antibody, human IgG1, kappa)
heavy: not shown
light: B1 light
notes: as for B1
B15: GpH7-B3 variant Y296_11K/GpL16-k0 (antibody, human IgG1, kappa)
heavy: not shown
light: B1 light
notes: as for B1
B16: GpH7-B3 variant Y296_12R/GpL16-k0 (antibody, human IgG1, kappa)
heavy: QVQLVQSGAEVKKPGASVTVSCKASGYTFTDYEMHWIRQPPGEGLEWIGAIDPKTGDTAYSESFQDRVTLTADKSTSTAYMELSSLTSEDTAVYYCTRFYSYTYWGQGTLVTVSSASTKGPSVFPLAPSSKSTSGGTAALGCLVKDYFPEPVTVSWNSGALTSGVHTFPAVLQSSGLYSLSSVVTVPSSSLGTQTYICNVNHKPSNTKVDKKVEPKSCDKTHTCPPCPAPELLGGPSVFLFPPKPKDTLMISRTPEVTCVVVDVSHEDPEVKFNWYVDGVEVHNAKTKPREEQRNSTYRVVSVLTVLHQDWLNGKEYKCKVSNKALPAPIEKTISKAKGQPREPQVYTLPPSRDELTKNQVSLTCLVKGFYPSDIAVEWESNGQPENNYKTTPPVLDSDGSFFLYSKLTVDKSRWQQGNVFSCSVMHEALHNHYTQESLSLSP
light: B1 light
notes: as for B1
B17: GpH7-B3 variant Y296_16H/GpL16-k0 (antibody, human IgG1, kappa)
heavy: not shown
light: B1 light
notes: as for B1
B18: GpH7-B3 variant Y296_20W/GpL16-k0 (antibody, human IgG1, kappa)
heavy: not shown
light: B1 light
notes: as for B1
B19: GpH7-B3 variant Y300_02A/GpL16-k0 (antibody, human IgG1, kappa)
heavy: not shown
light: B1 light
notes: as for B1
B20: GpH7-B3 variant Y300_03V/GpL16-k0 (antibody, human IgG1, kappa)
heavy: not shown
light: B1 light
notes: as for B1
B21: GpH7-B3 variant Y300_06M/GpL16-k0 (antibody, human IgG1, kappa)
heavy: not shown
light: B1 light
notes: as for B1
B22: GpH7-B3 variant Y300_08L/GpL16-k0 (antibody, human IgG1, kappa)
heavy: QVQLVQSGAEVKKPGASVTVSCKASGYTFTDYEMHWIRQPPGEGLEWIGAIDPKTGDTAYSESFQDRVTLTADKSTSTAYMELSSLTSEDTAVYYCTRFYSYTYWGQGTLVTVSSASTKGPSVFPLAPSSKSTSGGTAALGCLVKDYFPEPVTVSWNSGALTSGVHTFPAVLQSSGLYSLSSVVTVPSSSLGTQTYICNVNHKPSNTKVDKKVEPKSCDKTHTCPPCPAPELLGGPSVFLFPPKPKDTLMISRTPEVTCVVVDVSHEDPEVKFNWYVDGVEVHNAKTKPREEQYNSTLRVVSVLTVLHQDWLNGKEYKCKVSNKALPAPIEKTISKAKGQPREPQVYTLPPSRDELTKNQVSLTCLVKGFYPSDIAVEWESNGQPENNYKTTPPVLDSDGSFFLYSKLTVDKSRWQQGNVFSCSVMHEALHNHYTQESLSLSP
light: B1 light
notes: as for B1
B23: GpH7-B3 variant Y300_11K/GpL16-k0 (antibody, human IgG1, kappa)
heavy: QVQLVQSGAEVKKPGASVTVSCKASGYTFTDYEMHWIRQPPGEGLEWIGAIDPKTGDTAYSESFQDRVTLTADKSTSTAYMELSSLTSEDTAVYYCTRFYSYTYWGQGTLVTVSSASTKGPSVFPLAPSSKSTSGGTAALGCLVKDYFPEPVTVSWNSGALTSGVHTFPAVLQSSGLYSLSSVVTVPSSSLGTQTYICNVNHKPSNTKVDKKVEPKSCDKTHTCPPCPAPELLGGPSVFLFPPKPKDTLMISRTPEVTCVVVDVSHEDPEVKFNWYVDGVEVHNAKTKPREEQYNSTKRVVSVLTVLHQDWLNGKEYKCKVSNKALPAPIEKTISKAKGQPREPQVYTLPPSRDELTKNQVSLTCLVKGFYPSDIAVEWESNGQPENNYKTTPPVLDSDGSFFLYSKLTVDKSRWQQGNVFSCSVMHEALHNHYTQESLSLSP
light: B1 light
notes: as for B1
B24: GpH7-B3 variant Y300_13S/GpL16-k0 (antibody, human IgG1, kappa)
heavy: not shown
light: B1 light
notes: as for B1
B25: GpH7-B3 variant Y300_14T/GpL16-k0 (antibody, human IgG1, kappa)
heavy: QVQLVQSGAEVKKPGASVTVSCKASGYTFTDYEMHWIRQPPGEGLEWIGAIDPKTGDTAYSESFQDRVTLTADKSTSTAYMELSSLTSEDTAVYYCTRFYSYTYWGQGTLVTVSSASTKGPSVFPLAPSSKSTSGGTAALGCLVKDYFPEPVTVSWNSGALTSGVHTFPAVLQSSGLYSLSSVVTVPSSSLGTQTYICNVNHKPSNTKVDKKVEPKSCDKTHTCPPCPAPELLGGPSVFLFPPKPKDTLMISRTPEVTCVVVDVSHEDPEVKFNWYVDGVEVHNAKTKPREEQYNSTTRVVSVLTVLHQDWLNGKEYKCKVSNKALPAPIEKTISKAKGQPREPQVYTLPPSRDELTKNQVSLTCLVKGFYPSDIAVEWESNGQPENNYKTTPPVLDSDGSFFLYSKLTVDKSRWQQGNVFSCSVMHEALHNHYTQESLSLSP
light: B1 light
notes: as for B1
B26: GpH7-B3 variant Y300_19Q/GpL16-k0 (antibody, human IgG1, kappa)
heavy: not shown
light: B1 light
notes: as for B1
B27: GpH7-B3 variant Y300_20W/GpL16-k0 (antibody, human IgG1, kappa)
heavy: not shown
light: B1 light
notes: as for B1
B28: GpH7-A5/GpH7-B3 variant T335_04F/GpL16-k0 (antibody, human IgG1, kappa)
heavy 1: not shown
heavy 2: not shown
light: B1 light
notes: heterodimerized IgG1, mutation in one H chain only; also called He Ab
B29: GpH7-A5/GpH7-B3 variant A330_01G/GpL16-k0 (antibody, human IgG1, kappa)
heavy 1: not shown
heavy 2: not shown
light: B1 light
notes: as for B28
B30: GpH7-A5/GpH7-B3 variant A330_04F/GpL16-k0 (antibody, human IgG1, kappa)
heavy 1: not shown
heavy 2: not shown
light: B1 light
notes: as for B28
B31: GpH7-A5/GpH7-B3 variant A330_10E/GpL16-k0 (antibody, human IgG1, kappa)
heavy 1: not shown
heavy 2: not shown
light: B1 light
notes: as for B28
B32: GpH7-A5/GpH7-B3 variant A330_19Q/GpL16-k0 (antibody, human IgG1, kappa)
heavy 1: not shown
heavy 2: not shown
light: B1 light
notes: as for B28
B33: GpH7-A5/GpH7-B3 variant A330_20W/GpL16-k0 (antibody, human IgG1, kappa)
heavy 1: not shown
heavy 2: not shown
light: B1 light
notes: as for B28
B34: GpH7-A5/GpH7-B3 variant D265_10E/GpL16-k0 (antibody, human IgG1, kappa)
heavy 1: not shown
heavy 2: not shown
light: B1 light
notes: as for B28
B35: GpH7-A5/GpH7-B3 variant H268_01G/GpL16-k0 (antibody, human IgG1, kappa)
heavy 1: not shown
heavy 2: not shown
light: B1 light
notes: as for B28
B36: GpH7-A5/GpH7-B3 variant H268_09D/GpL16-k0 (antibody, human IgG1, kappa)
heavy 1: not shown
heavy 2: not shown
light: B1 light
notes: as for B28
B37: GpH7-A5/GpH7-B3 variant H268_10E/GpL16-k0 (antibody, human IgG1, kappa)
heavy 1: not shown
heavy 2: not shown
light: B1 light
notes: as for B28
B38: GpH7-A5/GpH7-B3 variant H268_13S/GpL16-k0 (antibody, human IgG1, kappa)
heavy 1: not shown
heavy 2: not shown
light: B1 light
notes: as for B28
B39: GpH7-A5/GpH7-B3 variant H268_18N/GpL16-k0 (antibody, human IgG1, kappa)
heavy 1: not shown
heavy 2: not shown
light: B1 light
notes: as for B28
B40: GpH7-A5/GpH7-B3 variant I336_08L/GpL16-k0 (antibody, human IgG1, kappa)
heavy 1: not shown
heavy 2: not shown
light: B1 light
notes: as for B28
B41: GpH7-A5/GpH7-B3 variant I336_09D/GpL16-k0 (antibody, human IgG1, kappa)
heavy 1: not shown
heavy 2: not shown
light: B1 light
notes: as for B28
B42: GpH7-A5/GpH7-B3 variant I336_11K/GpL16-k0 (antibody, human IgG1, kappa)
heavy 1: not shown
heavy 2: not shown
light: B1 light
notes: as for B28
B43: GpH7-A5/GpH7-B3 variant I336_12R/GpL16-k0 (antibody, human IgG1, kappa)
heavy 1: not shown
heavy 2: not shown
light: B1 light
notes: as for B28
B44: GpH7-A5/GpH7-B3 variant I336_13S/GpL16-k0 (antibody, human IgG1, kappa)
heavy 1: not shown
heavy 2: not shown
light: B1 light
notes: as for B28
B45: GpH7-A5/GpH7-B3 variant I336_14T/GpL16-k0 (antibody, human IgG1, kappa)
heavy 1: not shown
heavy 2: not shown
light: B1 light
notes: as for B28
B46: GpH7-A5/GpH7-B3 variant S337_04F/GpL16-k0 (antibody, human IgG1, kappa)
heavy 1: not shown
heavy 2: not shown
light: B1 light
notes: as for B28
B47: GpH7-A5/GpH7-B3 variant S337_06M/GpL16-k0 (antibody, human IgG1, kappa)
heavy 1: not shown
heavy 2: not shown
light: B1 light
notes: as for B28
B48: GpH7-A5/GpH7-B3 variant S337_07I/GpL16-k0 (antibody, human IgG1, kappa)
heavy 1: not shown
heavy 2: not shown
light: B1 light
notes: as for B28
B49: GpH7-A5/GpH7-B3 variant S337_08L/GpL16-k0 (antibody, human IgG1, kappa)
heavy 1: not shown
heavy 2: not shown
light: B1 light
notes: as for B28
B50: GpH7-A5/GpH7-B3 variant S337_09D/GpL16-k0 (antibody, human IgG1, kappa)
heavy 1: not shown
heavy 2: not shown
light: B1 light
notes: as for B28
B51: GpH7-A5/GpH7-B3 variant S337_10E/GpL16-k0 (antibody, human IgG1, kappa)
heavy 1: not shown
heavy 2: not shown
light: B1 light
notes: as for B28
B52: GpH7-A5/GpH7-B3 variant S337_15Y/GpL16-k0 (antibody, human IgG1, kappa)
heavy 1: not shown
heavy 2: not shown
light: B1 light
notes: as for B28
B53: GpH7-A5/GpH7-B3 variant S337_19Q/GpL16-k0 (antibody, human IgG1, kappa)
heavy 1: not shown
heavy 2: not shown
light: B1 light
notes: as for B28
B54: GpH7-A5/GpH7-B3 variant S337_20W/GpL16-k0 (antibody, human IgG1, kappa)
heavy 1: not shown
heavy 2: not shown
light: B1 light
notes: as for B28
B55: GpH7-A5/GpH7-B3 variant T335_05P/GpL16-k0 (antibody, human IgG1, kappa)
heavy 1: not shown
heavy 2: not shown
light: B1 light
notes: as for B28
B56: GpH7-A5/GpH7-B3 variant T335_06M/GpL16-k0 (antibody, human IgG1, kappa)
heavy 1: not shown
heavy 2: not shown
light: B1 light
notes: as for B28
B57: GpH7-A5/GpH7-B3 variant T335_07I/GpL16-k0 (antibody, human IgG1, kappa)
heavy 1: not shown
heavy 2: not shown
light: B1 light
notes: as for B28
B58: GpH7-A5/GpH7-B3 variant T335_08L/GpL16-k0 (antibody, human IgG1, kappa)
heavy 1: not shown
heavy 2: not shown
light: B1 light
notes: as for B28
B59: GpH7-A5/GpH7-B3 variant T335_09D/GpL16-k0 (antibody, human IgG1, kappa)
heavy 1: not shown
heavy 2: not shown
light: B1 light
notes: as for B28

Molecular target: T1, FcγRIa (human, UniProt P12314 16-292)
T1 construct: extracellular domain; soluble His-tagged extracellular domain expressed in FreeStyle293 cells, used as analyte in Biacore; also called FcgRI; CD64
Assay: SPR (Biacore), captured antibody, FcγRIa analyte; relative to GpH7-B3/GpL16-k0

T1 sequence (P12314 16-292): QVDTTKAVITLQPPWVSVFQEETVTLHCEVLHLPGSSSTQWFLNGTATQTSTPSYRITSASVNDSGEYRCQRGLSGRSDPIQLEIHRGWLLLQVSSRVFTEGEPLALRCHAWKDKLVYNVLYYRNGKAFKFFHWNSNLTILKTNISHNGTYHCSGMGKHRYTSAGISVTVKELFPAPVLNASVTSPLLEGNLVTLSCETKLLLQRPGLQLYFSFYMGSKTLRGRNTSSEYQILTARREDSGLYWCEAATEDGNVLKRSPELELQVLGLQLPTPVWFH

| Binder | Ho/Con_1a |
| --- | --- |
| B1 | 106 relative, control = 100 |
| B2 | 106 relative, control = 100 |
| B3 | 105 relative, control = 100 |
| B4 | 105 relative, control = 100 |
| B5 | 107 relative, control = 100 |
| B6 | 108 relative, control = 100 |
| B7 | 103 relative, control = 100 |
| B8 | 106 relative, control = 100 |
| B9 | 106 relative, control = 100 |
| B10 | 104 relative, control = 100 |
| B11 | 102 relative, control = 100 |
| B12 | 105 relative, control = 100 |
| B13 | 104 relative, control = 100 |
| B14 | 104 relative, control = 100 |
| B15 | 102 relative, control = 100 |
| B16 | 103 relative, control = 100 |
| B17 | 105 relative, control = 100 |
| B18 | 106 relative, control = 100 |
| B19 | 110 relative, control = 100 |
| B20 | 112 relative, control = 100 |
| B21 | 111 relative, control = 100 |
| B22 | 109 relative, control = 100 |
| B23 | 101 relative, control = 100 |
| B24 | 110 relative, control = 100 |
| B25 | 110 relative, control = 100 |
| B26 | 110 relative, control = 100 |
| B27 | 110 relative, control = 100 |

Molecular target: T1, FcγRIa
Assay: SPR (Biacore), captured antibody, FcγRIa analyte; relative to GpH7-A5/GpH7-B3/GpL16-k0

| Binder | He/Con_1a |
| --- | --- |
| B28 | 105 relative, control = 100 |
| B29 | 106 relative, control = 100 |
| B30 | 106 relative, control = 100 |
| B31 | 107 relative, control = 100 |
| B32 | 105 relative, control = 100 |
| B33 | 108 relative, control = 100 |
| B34 | 101 relative, control = 100 |
| B35 | 107 relative, control = 100 |
| B36 | 110 relative, control = 100 |
| B37 | 111 relative, control = 100 |
| B38 | 109 relative, control = 100 |
| B39 | 108 relative, control = 100 |
| B40 | 107 relative, control = 100 |
| B41 | 104 relative, control = 100 |
| B42 | 105 relative, control = 100 |
| B43 | 102 relative, control = 100 |

| Binder | He/Con_1a |
| --- | --- |
| B44 | 102 relative, control = 100 |
| B45 | 104 relative, control = 100 |
| B46 | 106 relative, control = 100 |
| B47 | 107 relative, control = 100 |
| B48 | 105 relative, control = 100 |
| B49 | 105 relative, control = 100 |
| B50 | 106 relative, control = 100 |
| B51 | 106 relative, control = 100 |
| B52 | 104 relative, control = 100 |
| B53 | 105 relative, control = 100 |
| B54 | 105 relative, control = 100 |
| B55 | 106 relative, control = 100 |
| B56 | 107 relative, control = 100 |
| B57 | 109 relative, control = 100 |
| B58 | 115 relative, control = 100 |
| B59 | 108 relative, control = 100 |
